# Laboratory results reported in paper PMC7317531 (Chembiochem, 2020).
# T1: SahH (Psilocybe cubensis, UniProt A0ACB8GS59)
# T1 sequence (A0ACB8GS59 1-430): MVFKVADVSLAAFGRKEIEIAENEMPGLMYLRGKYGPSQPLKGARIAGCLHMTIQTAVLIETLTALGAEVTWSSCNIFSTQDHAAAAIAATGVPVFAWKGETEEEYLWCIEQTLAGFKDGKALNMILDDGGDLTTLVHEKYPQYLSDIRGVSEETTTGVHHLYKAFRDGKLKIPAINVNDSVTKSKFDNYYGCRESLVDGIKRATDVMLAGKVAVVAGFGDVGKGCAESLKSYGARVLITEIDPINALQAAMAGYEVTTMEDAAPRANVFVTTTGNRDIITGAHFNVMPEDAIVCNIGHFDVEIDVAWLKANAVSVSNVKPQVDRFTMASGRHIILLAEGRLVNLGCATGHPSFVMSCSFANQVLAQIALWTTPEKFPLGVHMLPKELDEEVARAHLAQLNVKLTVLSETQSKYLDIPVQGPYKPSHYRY
# What was measured:
# [1] = biological target: T1, SahH; experiment: Ellman's reagent; type: biochemical; details: hydrolytic direction, 100 μM NAD+, pH 7.8, 34 °C
# [2] = biological target: PsiM (Psilocybe cubensis, UniProt P0DPA9); experiment: UHPLC-MS quantification of baeocystin and psilocybin; type: biochemical; details: 3 mM SAM, 1 mM norbaeocystin, 1 μM PsiM, pH 8.0, 25 °C; competitive
# [3] = biological target: T1, SahH; experiment: inhibition of SAH hydrolysis; type: biochemical; details: hydrolytic direction
# [4] = substrate: Nc1ncnc2c1ncn2[C@@H]1O[C@H](CO)[C@@H](O)[C@H]1O; experiment: purified protein
# [5] = substrate: N[C@@H](CCS)C(=O)O; experiment: purified protein; details: synthetic direction, co-substrate adenosine
# [6] = substrate: Nc1ncnc2c1ncn2[C@@H]1O[C@H](COP(=O)(O)OP(=O)(O)OP(=O)(O)O)[C@@H](O)[C@H]1O; experiment: purified protein; details: adenosine co-substrate, 10 mM MgCl2, pH 7.8, 30 °C
# [7] = synthetic direction, co-substrate L-homocysteine
# [8] = ATP co-substrate, 10 mM MgCl2, pH 7.8, 30 °C
molecule,measurement,setting,value
Nc1ncnc2c1ncn2[C@@H]1O[C@H](CSCC[C@H](N)C(=O)O)[C@@H](O)[C@H]1O [SAH],Km,[1],57.2 µM
same,inhibition at 1-16 mM,[2],SAH competitively inhibited PsiM′s activity in a concentration‐dependent manner
Nc1ncnc2[nH]cnc12 [Ade],inhibition,[3]; tenfold excess over SAH,to a lower extent—by tenfold excess of Ade over the SAH substrate
Nc1ncnc2c1ncn2[C@@H]1O[C@H](CO)[C@@H](O)[C@H]1O [Ado],inhibition,[3]; product inhibition,SAH hydrolysis is strongly inhibited by elevated Ado concentrations
SahH (Psilocybe cubensis) (protein) MVFKVADVSLAAFGRKEIEIAENEMPGLMYLRGKYGPSQPLKGARIAGCLHMTIQTAVLIETLTALGAEVTWSSCNIFSTQDHAAAAIAATGVPVFAWKGETEEEYLWCIEQTLAGFKDGKALNMILDDGGDLTTLVHEKYPQYLSDIRGVSEETTTGVHHLYKAFRDGKLKIPAINVNDSVTKSKFDNYYGCRESLVDGIKRATDVMLAGKVAVVAGFGDVGKGCAESLKSYGARVLITEIDPINALQAAMAGYEVTTMEDAAPRANVFVTTTGNRDIITGAHFNVMPEDAIVCNIGHFDVEIDVAWLKANAVSVSNVKPQVDRFTMASGRHIILLAEGRLVNLGCATGHPSFVMSCSFANQVLAQIALWTTPEKFPLGVHMLPKELDEEVARAHLAQLNVKLTVLSETQSKYLDIPVQGPYKPSHYRY,Km,[4]; [7],56.7 µM
same,kcat,[4]; [7],1.8 s⁻¹
same,kcat/Km,[4]; [7],31000 M⁻¹ s⁻¹
same,Km,[5],19.8 µM
same,kcat,[5],1.8 s⁻¹
same,kcat/Km,[5],91000 M⁻¹ s⁻¹
AdoK (Psilocybe cubensis) (protein) MSAPSYSLFCMGNPLLDMQVRNGEQLLEKYGLKANDAILADEKQSEIYDELVKEHQVTYVAGGAAQNAARGAAYILPPGSVVYTGAVGDDELAEQLKAANKREGLDQVYQVKKGEKTGACAVVITGHHRSLVTTLRVAEKFEKSHLSSPEVAPLVENAKFFYIEGYFLTHGVESALELSSKASAAGKTFVMNLSAPFIAQFFGEQLNQILPHTDIIIGNEAEAEAWATAHNYASTTDLASIAKQIALLPKSNPARPRVVVFTHGAQSTVLVSADRPDEARVFAVDVLADDKIVDTNGAGDAFAGGFVGALVAGKDLEGAVLAGHALARQCVQQVGPQYPWPKVDIL,Km,[6],11.6 µM
same,kcat,[6],1400 s⁻¹
same,kcat/Km,[6],1.2e+08 M⁻¹ s⁻¹
same,Km,[4]; [8],33.6 µM
same,kcat,[4]; [8],1400 s⁻¹
same,kcat/Km,[4]; [8],4.2e+07 M⁻¹ s⁻¹
